In patent publication US10358638B2, “Method of producing 1,5-pentadiamine using lysine decarboxylase mutant having improved thermal stability” (AJINOMOTO CO., INC., priority 2014, dated 2019):

Assays:
[1] = Enzyme activity of culture media of expressing strains after heat treatment with or without disruption; assay type: cell-based, Escherichia coli
Method: (§1) The activity of the lysine decarboxylase was measured according to the method described in JP patent application laid-open Publication No. 2008-193899. 0.1 mL of a microbial cell suspension or a treated product thereof was added to 1 mL of a reaction solution containing 100 mM MES-NaOH buffer (pH 6.0), 10 g/L (55 mM) of L-lysine hydrochloride and 26.5 mg/L (0.1 mM) of PLP, and then the reaction mixture was incubated at 37° C. for 5 minutes. 0.1 mL of the reaction solution was collected and added to 1 mL of 1% (v/v) phosphoric acid to stop the reaction. Lysine and 1,5-PD were quantified with HPLC by a post column OPA method (S. R. Vale and M. B. Gloria, Journal Of AOAC International (1997) vol. 80, p. 1006-1012) or a method of quantifying remaining L-lysine using a biosensor BF-5 (Oji Scientific Instruments Co., Ltd.). One unit was defined as an activity that formed 1 μmol of 1,5-PD in one minute under this condition.
Microbial cells of E. coli JM109/pCadA220 and E. coli JM109/pCadA234 carrying the wild-type CadA and the double mutant CadA, respectively were cultured in the LB medium. Subsequently, 15 mL of the cultured medium was inoculated into 300 mL of culture medium (25 g/L of glucose, 5 g/L of ammonium sulfate, 2 g/L of potassium phosphate, 1 g/L of magnesium sulfate heptahydrate, 20 mg/L of iron sulfate heptahydrate, 20 mg/L of manganese sulfate pentahydrate, 1 mg/L of thiamine hydrochloride, 0.45 g/L of hydrolyzed soybeans, pH 7.0) in a 500 mL jar fermenter (manufactured by ABLE & Biott Co., Ltd.), and cultured with ventilation at 300 mL/minute while stirring at 250 rpm at 30° C. for 12 hours. Culture media containing 10.1 g/L and 10.9 g/L of microbial cells in terms of dry microbial cell weight were able to be prepared for E. coli JM109/pCadA220 and E. coli JM109/pCadA234, respectively. For the purpose of improving substrate permeability, the pH value was adjusted to 5.5, and subsequently the culture media were incubated at 55° C. and 60° C., and then the culture media were directly used to measure the activity after the incubation.
Since the lysine decarboxylase is expressed within the microbial cell, when the microbial cell is used directly, lysine cannot react with the lysine decarboxylase, and the efficiency of a decarboxylation reaction is very poor. […] However, the wild-type enzyme was inactivated during the incubation when heated excessively. The mutated enzyme having the improved thermal stability could stably keep its activity even when using conditions where the wild-type enzyme was easily inactivated as shown in Example 2. When the microbial cells carrying such a mutated enzyme were used, efficient treatment in a short period of time was possible. This has shown that the mutated enzyme not only can act at higher temperature upon reaction but also can be easily used when the microbial cell is directly used.

[2] = Inhibition of enzyme activity by iron ion and effect of chelating agent EDTA; assay type: biochemical, Escherichia coli
Method: as §1
Cell free extracts were prepared from the strain expressing wild-type CadA and the strain overexpressing double mutant CadA, respectively in the same manner as in Examples 2 and 3. Using the resulting cell free extract, iron sulfate heptahydrate (Nacalai Tesque Inc.) at a final concentration of […] (2 mM) was added to the composition shown in Example 1, and an inhibitory effect was measured. […]

[3] = Remaining lysine decarboxylase activity of cell free extract after incubation at 68° C.; assay type: biochemical, Escherichia coli; conditions: 68° C., 1 hour, FIG. 1
Method: as §1
A combination mutant for increasing the amount of expressed CadA was constructed using QuikChange™ Site-Directed Mutagenesis Kit (Stratagene). A mutation to alter from Val (GTT) to Ile ([…]) at position 3 was introduced using the plasmid pCadA233 as the template and using oligonucleotides v3i_r (5′-cat gtg att caa tat tgc aat aat gtt cat cta cat tcc tcc tta cg-3′(SEQ ID NO:11)) and v3i_f (5′-cgt aag gag gaa tgt aga tga aca tta ttg caa tat tga atc aca tg-3′ (SEQ ID NO:12)) as primers according to a protocol. The nucleotide sequence of the constructed plasmid was determined by the method described in Example 2 to confirm that the objective mutation had been introduced, and this plasmid was designated as pCadA234. Microbial cells of E. coli JM109/pCadA234 expressing this double mutant CadA234 at high level were cultured to prepare a cell free extract in the same manner as in Example 2. The activity in this cell free extract was 663 U/mL, which was almost the same as that from the strain expressing the wild-type enzyme.
The resulting cell free extract was diluted to 20 fold with 0.1 M MES-NaOH buffer (pH 6.0). Each crude enzyme solution was incubated at 68° C., which is a higher temperature than in Example 2, and the remaining activity was measured over time. After incubation at 68° C. for one hour, the wild-type enzyme was inactivated to 27% while the single mutant enzymes V3I and A590T were inactivated to 47% and 27%, respectively. On the contrary, the double mutant enzyme retained 70% of its activity, and even after 3 hours, still retained about 60% of its activity (FIG. 1). Therefore, it was shown that the double mutation has a synergistic effect and further improved the thermal stability.

[4] = Incubation at 55° C. for 1 h, Disruption
[5] = Incubation at 55° C. for 1 h, physical treatment None
[6] = Incubation at 55° C. for 3 h, Disruption
[7] = Incubation at 55° C. for 3 h, physical treatment None
[8] = Incubation at 60° C. for 1 h, Disruption
[9] = Incubation at 60° C. for 1 h, physical treatment None
[10] = No heat treatment, physical treatment None

B1: pCadA220: wild-type lysine decarboxylase (CadA) derived from Escherichia coli W3110, expressed from plasmid pCadA220 (protein, UniProt P0A9H3 1-715, looked up)
Inducible lysine decarboxylase: MNVIAILNHMGVYFKEEPIRELHRALERLNFQIVYPNDRDDLLKLIENNARLCGVIFDWDKYNLELCEEISKMNENLPLYAFANTYSTLDVSLNDLRLQISFFEYALGAAEDIANKIKQTTDEYINTILPPLTKALFKYVREGKYTFCTPGHMGGTAFQKSPVGSLFYDFFGPNTMKSDISISVSELGSLLDHSGPHKEAEQYIARVFNADRSYMVTNGTSTANKIVGMYSAPAGSTILIDRNCHKSLTHLMMMSDVTPIYFRPTRNAYGILGGIPQSEFQHATIAKRVKETPNATWPVHAVITNSTYDGLLYNTDFIKKTLDVKSIHFDSAWVPYTNFSPIYEGKCGMSGGRVEGKVIYETQSTHKLLAAFSQASMIHVKGDVNEETFNEAYMMHTTTSPHYGIVASTETAAAMMKGNAGKRLINGSIERAIKFRKEIKRLRTESDGWFFDVWQPDHIDTTECWPLRSDSTWHGFKNIDNEHMYLDPIKVTLLTPGMEKDGTMSDFGIPASIVAKYLDEHGIVVEKTGPYNLLFLFSIGIDKTKALSLLRALTDFKRAFDLNLRVKNMLPSLYREDPEFYENMRIQELAQNIHKLIVHHNLPDLMYRAFEVLPTMVMTPYAAFQKELHGMTEEVYLDEMVGRINANMILPYPPGVPLVMPGEMITEESRPVLEFLQMLCEIGAHYPGFETDIHGAYRQADGRYTVKVLKEESKK
With B1 the Enzyme activity [1, 4] was 819 units/ml, the Relative activity [1, 4] was 89.6% and the Enzyme activity [1, 5] was 246 units/ml. It also gave a Relative activity [1, 5] of 26.9%, an Enzyme activity [1, 6] of 730 units/ml and a Relative activity [1, 6] of 79.9%. The Enzyme activity [1, 7] was 375 units/ml, the Relative activity [1, 7] was 41.0% and the Enzyme activity [1, 8] was 798 units/ml. It also gave a Relative activity [1, 8] of 87.3%, an Enzyme activity [1, 9] of 282 units/ml and a Relative activity [1, 9] of 30.9%. The Enzyme activity ([1]; No heat treatment, Disruption) was 914 units/ml, the Relative activity ([1]; No heat treatment, Disruption) was 100% and the Enzyme activity [1, 10] was 17.5 units/ml. The Relative activity [1, 10] was 1.9%, the “activity with 2 mM iron ion, of the activity when no iron ion was added” value ([2]; 2 mM iron ion, no EDTA) was 46.8% and the Enzyme activity ([2]; FeSO4 2 mM, EDTA 0.5 mM) was 827 units/ml. It also gave an Enzyme activity ([2]; FeSO4 2 mM, EDTA 1 mM) of 856 units/ml, an Enzyme activity ([2]; FeSO4 2 mM, EDTA 2 mM) of 821 units/ml and an Enzyme activity ([2]; FeSO4 2 mM, EDTA 4 mM) of 840 units/ml. It also gave an Enzyme activity ([2]; FeSO4 2 mM, EDTA 5 mM) of 832 units/ml, an Enzyme activity ([2]; FeSO4 2 mM, EDTA None) of 398 units/ml and an Enzyme activity ([2]; FeSO4 None, EDTA 2 mM) of 840 units/ml. For the same molecule, the Enzyme activity ([2]; FeSO4 None, EDTA None) was 850 units/ml and the “remaining activity after incubation at 68° C. for one hour” value [3] was 27%.
